Experimental data published in patent US20230121197A1, “ANTIBODIES SPECIFICALLY BINDING THE CARBOXYMETHYLATED CATALYTIC SUBUNIT OF PROTEIN PHOSPHATASE 2A” (Medizinische Universität Wien, priority 2020, published 2023).

Key:
[1] = biological target: PP2Ac C-terminal peptide pT304-meL309, ac-HVTRRpTPDYFL-CH3 (human); experiment: ELISA, peptide coated at 2 µg/ml, supernatant 1:50
[2] = biological target: T1, PP2Ac C-terminal peptide meL309, ac-HVTRRTPDYFL-CH3 (α-carboxymethylated) (human, SMILES …); experiment: ELISA, peptide coated at 2 µg/ml, supernatant 1:50
T1 construct: also called Y307-meL309; mePP2Ac
T1 peptide: Ac-HVTRRTPDYFL-OMe
Method: Nunc Medisorp 96-well ELISA flat-bottom plates were coated with peptides L309 (ac-[…]) (SEQ ID NO:18), meL309 (ac-[…]-CH₃) (SEQ ID NO:18) or amL309 (ac-[…]-NH₂) (SEQ ID NO:18) at 2 μg/ml in TBS at 4° C. over-night. After washing once with TBS, the wells were incubated with 2% BSA in TBS for 1 h at RT. After washing once with TBS, the wells were incubated with single clone hybridoma cell culture supernatant clone 7C10-C5 1:50 (˜1 μg/ml) in 1% BSA/TBS for 1 h at RT. After washing twice with TBS, wells were incubated with anti-mouse HRP-coupled secondary antibody for 1 h at RT, followed by washing 3× in PBS. Bound antibodies were detected by colorimetric reaction with 3,3′,5,5′-Tetramethylbenzidine as substrate, and absorbance was measured at 450 nm. Values were normalized to meL309 which was set to 1. Average and standard deviation of N=8 experiments are shown. Statistical significance was assessed using ANOVA followed by Tukey's HSD as a post-hoc test. P values are indicated with *, **, ***, which correspond to values of <0.05, <0.01, and <0.001.
Specifically, flat-bottom Nunc-Immuno Medisorp 96-well ELISA plates (Thermo; 467320) were coated o/n at 4° C. with 50 μl of either a peptide of the sequence ac-[…]-OH (L309; unmodified) (SEQ ID NO:18) at a concentration of 2 μg/ml, a peptide of the sequence ac-[…]-CH₃ (meL309; methylated) (SEQ ID NO:18) at a concentration of 2 μg/ml in TBS (137 mM NaCl (AppliChem, #131659, 2.7 mM KCl (AppliChem, #131494), 24.8 mM Tris (AppliChem, #A1086), pH 7.4 with HCl) or a peptide of the sequence ac-[…]-NH₂ (amL309; amidated) (SEQ ID NO:18) at a concentration of 2 μg/ml in TBS. Of note, the “ac-” in the peptides described here and in other Examples refers to an acetylated N-terminus. Said acetylation neutralizes the positive charge at the N-terminus, and the free charged N-terminus is thereby removed.

[3] = biological target: T2, mouse HA PP6c, carboxymethylated (immunoprecipitated from NIH3T3 cells) (mouse, UniProt Q9CQR6 1-305, C-terminal leucine α-carboxyl methyl ester (cellular methylation)); experiment: Western blot of anti-HA immunoprecipitates from NIH3T3 cells, with quantification, N=3
T2 construct: mature; also called methylated PP6c; not shown: HA tag
T2 sequence (looked up): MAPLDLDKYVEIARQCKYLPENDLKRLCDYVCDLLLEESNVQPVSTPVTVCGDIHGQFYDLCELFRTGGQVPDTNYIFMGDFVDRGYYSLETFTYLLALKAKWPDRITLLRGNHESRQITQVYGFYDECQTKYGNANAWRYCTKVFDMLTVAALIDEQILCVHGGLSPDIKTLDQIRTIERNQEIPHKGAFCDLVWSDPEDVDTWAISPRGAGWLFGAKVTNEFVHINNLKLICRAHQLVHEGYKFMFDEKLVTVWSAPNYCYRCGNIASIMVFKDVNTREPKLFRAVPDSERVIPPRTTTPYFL
Source text: (A) Alignment of the C-termini of mammalian catalytic PP2Ac, PP4c and PP6c subunits (B) Immunoblotting of anti HA-immunoprecipitates of NIH3T3 cells either infected with retroviral supernatants of pBabe hygro (control) or pBabe hygro HA-PP2Ac (label “HA-PP2A), pBabe hygro HA-PP4c (label “HA-PP4”) or pBabe hygro HA-PP6c (label HA-PP6) using indicated antibodies. The label “7C10” refers to the 7C10-C5 monoclonal antibody. To equilibrate HA levels, 2 times more of the HA-PP4c and 3 times more of the HA-PP6c immunoprecipitates was loaded than HA-PP2Ac. The panel originates from 3 different blotting membranes for each antibody indicated in the panel. The blots are representative of N=3 independent immunoprecipitation experiments. The 2A10 and 7C10-C5 signals were quantified from N=3 independent experiments, normalized to the HA levels and the HA-PP2Ac signals were set to 1. Average and standard deviation (error bars) are shown. Statistical significance was assessed using ANOVA followed by Tukey's HSD as a post-hoc test. […]

PP4 = experiment: Summary of cross-reactivities of C-terminal PP2Ac antibodies (Table 4), PP4; details: antibodies screened for binding methylated PP2Ac
Source text: Examples of antibodies with a preference for non-methylated PP2Ac are mouse monoclonal antibody 4B7 (Yu (2001), Mol Biol Cell 12, 185-199), mouse monoclonal antibody 1D7 generated by the Ogris lab but also the rabbit monoclonal E155 antibody from Abeam and the mouse monoclonal F-8 from SCBT that were thought to be specific for pTyr^307.

Molecule	fold higher ELISA signal intensity than with the carboxymethylated peptide without phosphorylation (meL309) [1]	fold higher ELISA signal intensity than with the amidated peptide (amL309) [2]	fold higher ELISA signal intensity than with the non-methylated peptide (L309) [2]	fold higher ELISA signal intensity than with the α-carboxymethylated PP4c peptide (meL307) [2]	binding result [3]	PP4 meLeu^307 (PP4)
7C10-C5 monoclonal antibody (antibody, V domains shown, Used as hybridoma culture supernatant (ELISA, Western blot, IHC) or at 50 µg/mL (SPR); also called 7C10 X63; clone 7C10-C5) VH: DVQLQESGPGLVKPSQSLSLTCSVTGYSITSGYYWNWIRQFPGNKLEWMGYISYDGSNNYNPSLKNRISITRDTSKNQFFLKLNSVTTEDTATYYCAGRFAYWGQGTLVTVSA VL: DVLMTQTPLSLPVSLGDQASISCRSSQSIVHSNGNTYLEWYLQKPGQSPKLLIYKVSNRFSGVPDRFSGSGSGTDFTLKINRVEAEDLGVYYCFQGSHVPWTFGGGTKLEIK	1.6 fold	6 fold	26 fold	≥ 10 fold	no binding	–
7C10-C5: α-carboxymethylation specific mouse monoclonal IgG1 antibody from single clone hybridoma 7C10-C5 (DSM ACC3350) (antibody, Amino acid sequence of the recombinant 7C10-C5 heavy chain; Amino acid sequence of the recombinant 7C10-C5 light chain) heavy: MYRMQLLSCIALSLALVTNSDVQLQESGPGLVKPSQSLSLTCSVTGYSITSGYYWNWIRQFPGNKLEWMGYISYDGSNNYNPSLKNRISITRDTSKNQFFLKLNSVTTEDTATYYCAGRFAYWGQGTLVTVSAAKTTAPSVYPLAPVCGDTTGSSVTLGCLVKGYFPEPVTLTWNSGSLSSGVHTFPAVLQSDLYTLSSSVTVTSSTWPSQSITCNVAHPASSTKVDKKIEPRGPTIKPCPPCKCPAPNLLGGPSVFIFPPKIKDVLMISLSPIVTCVVVDVSEDDPDVQISWFVNNVEVHTAQTQTHREDYNSTLRVVSALPIQHQDWMSGKEFKCKVNNKDLPAPIERTISKPKGSVRAPQVYVLPPPEEEMTKKQVTLTCMVTDFMPEDIYVEWTNNGKTELNYKNTEPVLDSDGSYFMYSKLRVEKKNWVERNSYSCSVVHEGLHNHHTTKSFSRTPGK light: MDMRVPAQLLGLLLLWLSGARCDVLMTQTPLSLPVSLGDQASISCRSSQSIVHSNGNTYLEWYLQKPGQSPKLLIYKVSNRFSGVPDRFSGSGSGTDFTLKINRVEAEDLGVYYCFQGSHVPWTFGGGTKLEIKADAAPTVSIFPPSSEQLTSGGASVVCFLNNFYPKDINVKWKIDGSERQNGVLNSWTDQDSKDSTYSMSSTLTLTKDEYERHNSYTCEATHKTSTSPIVKSFNRNEC	–	–	–	–	–	— (— <15%)
